Data: the domain aggregation screens of Martell et al. (2025)

assay: soluble fraction after stress (log2 fold change); higher = more stays soluble; pooled small domains, quantitative proteomics; conditions: stress: 50 degC
Outline: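 The stress applied to every library was 50°C. These custom libraries of small protein domains were pooled and measured at high throughput with quantitative proteomics as the read-out. Aggregation propensity is expressed as the base-two logarithm of the fold change in how much of each protein remains soluble. The higher the value, the more of that protein stays in solution.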

| Sequence | soluble fraction (log2) |
| --- | --- |
| HMKLELSNDFYNKIRLARKENGLTQEDLAEKLNMKVGVIQKIENGVRQTDSNLMKISKFLGVEIYVE | -1.46 |
| HMDFYPARVKWFNKSKGFGFANIFKSNDDIFLHIETLKRSGLSDLETGEAIVLTVTEGPRGKMADTILTWD | -0.433 |
| HMNKTLTEQIYDELKSAIIELELKPGEFVTEEYLAEQLGVSRTPLKSAISKLIFEGLMAYEVGKGTYIS | -0.747 |
| HMKEATTSPLDGIPGIGSKRKKALLSHFGSARSVARADIPDLMRVDGISRQVAETIYGWFHN | -0.179 |
| HMDTLTRAMVWTIIARAEGVDTTGGATWYAKAQEWVTAKGISDGENPNAAITRQELVTMLYRLAGEPAV | -2.78 |
| HMAKETLRANIKDYIQKQIASGVYRPGDRIVETQLAREMNVSQAPVREAILELVSLGLLEERPYSGHMVRQ | 0.178 |
| HMGGPEVLELEDVKVGSPGPDEIKVTNHAIGLNYIDTYHRSGLYPLKLPSGIGLEAAGKVEEIGSNV | 0.0604 |
| HMDINNTNFSRDVDNLLQNEEFIKWRIFRTKEWEDYWENFRKENPHMEDALQEAISRFNAVK | 0.156 |
| HMAIQGVRLYERTLETGDPWLDRPLSTLSTGTRLIILVRRGGDVLIPKGDTVLLAGDTLVINDS | -3.24 |
| HMNPESRRSELIDAATKLFFSRGYTATSIRDILDAVDDRTASPSVFYYYFESKEAIYQAVLQRYTD | -2.03 |
| HMVSYTLPTLHTGKNWYVDFTAYDPAEQKMKRKKYMLDGISKITERRKRAVDIIATVTARLRSGWNPWA | -2.7 |
| HMDPDAIVSKGQLGALNNAIGRFIAQGGSQTVVDKGIAKRNPNAKKPADLTNSQAESLEAAILKILNG | 0.515 |
| HMVDKNDLTAIDGIGPFLEKKLNDVGVFTYADIAGWDAAKIEEITQQISFFEGRIEKDDWVGQAQKLIDDQ | -0.157 |
| HMANWRVGQTINALVSDRMPSGGLLLTVGRQSFVTTRDIPVQPGARIMLEVQQVEPKLVLRLVSA | -1.17 |
| HMSEKLLTLNEISEKLRVSRHTVQAWVSPSSPNHRPEFSSLARHAGRKTVFLESDVDAWLAQRR | -0.839 |
| HMFEDEPSEREIRISTLLAAFLKQEDGGTAVSRERFLKENSDVAEDLQILLEMADMIQEMAGP | -0.418 |
| HMRLEYLVDVEEISIKEYLMLLGLSRRLARKIKLYGKMYINHQEAFNYHLVKKGDLLTIEFDE | -2.55 |
| HMTLTLEQAAAIKNSEGEQYGKIESERLAAMSVQIDKAIKSNGHDPNKKADLERKLDAIGIILNARAAG | 0.122 |
| HMGSNTLEDAYKVLGITPDATDDEVRKAYKKMVIQHHPDKVANLGEDVKKAATIKLQEINNAKEIIFKARN | 0.139 |
| HMSLNIIEITAKKEINELKSFNIIYFNFDKNNSIYEYKISEREKKEILEIEKIIKNSDNVTNYEIRYSF | -0.52 |
| HMSAEAYLSFVKKENLRAAVVNYENNKEWLKDVPHERLLDLAVFAKVDMGEPGMSMKFNNWLLSR | -0.78 |
| HMTGPSYTTRRVEAAETMMEFLRTFPQAAPFIGDLYVKAQDWPLGEEIGDRLKKMLPPQLQE | -0.519 |
| HMSSARKVTVRGVRELPGIFMEKAEILDDGVRFFYRGEMEKLIGALQGLPIRDLTITEPDLEEVFLHFY | -1.09 |
| HMEEPLIISIDSNGAVYLEVDSFKDQSIEMSSLREIIEKIILANPDIQVVVRGDSEVKYEKVMDLMSILQS | -1.29 |
| HMSNVDYSQFKKDTVVEHTKFGRGIIIQTSGDGEDKIAAIAFKGLGVKRFSLAIAAASLKIIGKNDE | -0.0817 |
| HMSQTPDLQQERANLGDNADARIEAVDLWANKFFPEEHADAILQIGQTAKGIEALEFIMSKV | 0.0193 |

| Sequence | soluble fraction (log2) |
| --- | --- |
| HMPAYYQKEAVLDGRASVFAYERDPSSWYFKQLIPGTKKYRTKKIQGATTLEQAKSQALDIALGLRDEP | 0.0201 |
| HMTKQNVVPLMYRMIDTLEQFIKADVPFNIETRLARVERLRETMVSSSVTTSEKFRQVLEAYTIETD | -0.924 |
| HMNIGEKIKTLRENNNISIEELAEKINDSIENILKYENNELEPTLDKKLALSIALGVTLSDLS | -0.114 |
| HMAPREELIAIHEALDKLEREDPQVSQLVKLRYFVGMTMAEAADAMDLKKRAAEALWTYGKAWLHREIKKN | -2.85 |
| HMNVEALIGREGRVTDKIEANGYGRVKVDGDSWKAKSANGAEIRQNTDVRILSIDSVIITVEP | -0.379 |
| HMIPLKTEAIPVSYGDGAAIIRSLAVAFPSRTFHWDAQTRRIIGQALDEEWQVIRSLVWQLDIP | -0.584 |
| HMGIIYGKNPVLEAISSGTTINKIYAQTSNKEIDSVIKEALKRKIIVVNTDKQKLDKMIDGKNSQGIIASI | 0.317 |
| HMRDRYEYLKELRLYLSPLGRTEEDRVIEYYAELIGDKIESGIPENGVLSQLGTPRELADKILAETQEY | -0.35 |
| HMSQNVQDVFLNHVRKSKNPVTVFLVNGVKLQGIITWFDNFSVLLRREGHTQLVYKHAISTVMPSGPIQLF | 0.0729 |
| HMTGRHEEAIQELKRTLELHPQKPKIFLLLGVSYLRLNNLKKAVEAFNTVLLLQPKNQKALTMLKEIKKR | 0.0384 |
| HMNEYHRNISDEEFVRDIKETAIKLKKETLTGVEYSQNGKYHASTIIHRFGSWKKALELAELNTK | -0.056 |
| HMDSISEQIYSIIKEEILLAKRKPGEQINPRKLADEFETSVMPIRDALNQLANEGLVIRKPRVGFFVR | 0.0655 |
| HMEDNLVTYPNPTSDYIYVSKKVDLTVVNMLGDILIQKQNINVLDVTELTPGMYTIVIRYNNVTTNKRIIK | -0.372 |
| HMKNESLMLPRDIDYSRVHGLSNEAIQKLQDALPQSLGQASRIEGITPATLSLLLLYLKKNNKRI | -0.00929 |
| HMTKEEREKREKYEKLMKKAEELTAAKNHREVINVLGQAKAYATAAQLKEIEEKIKAATSEMNK | 0.136 |
| HMDTMQQESMDTKSILATALMELTSRKNFAKITIADITHVSGFNRQTFYYHFRDKYELLSWIY | 0.0516 |
| HMAAMSLGERIGAHRKRMGISQEELGHRMGVSRQAVSKWETGRAVPDMENLLALARLFGVPVSELAD | -0.177 |
| HMNNTVLSSVKSINMFLDANGGDAGQAFRIYNNTNPDSNPTESTYIFKVAEDGNTFVKGYLNLNGTTL | 0.014 |
| HMQITQSSEPIDVSALRLGMFIHLEGGWLSHPFPRSSFKITSEDQLVTLRSLGISVLRWSPELSDPE | -0.834 |
| HMSTMVEIPNVVGMTIKEAKEALGNLGLSISKISGSNEDSAIVTEVSPAPGSSVKRDESITLVGQPK | 0.0366 |
| HMEIFYSARAWAKLNDLVATRTYLQHLGAIAGRIGRSEGLSPDRIPDGRDGAVNGWPLWVWDRAYAEVS | -2.89 |
| HMFADLNPDENYGQVYIRTNTIDNLYQTLLDNKTRIHPNGLLELKPWGQKEFSILDPDKNLLTFGES | 0.0797 |
| HMNNYFPAYKGSATSIAPALKQMGVNNSYAYRSKIAAVNNITGYRGTPAQNTQMLNLLKQGRLIK | 0.362 |
| HMTPVKAPLPGVVTKINVSVGQQVKKGENVLVLEAMKMENNIAAEADGTVSGIAVKAGDSVLEGAVLLTI | 0.184 |
| HMRDFLMDSTKNKLSKDQVQLSRIFLWFGNDFGSKAERLEFISRYSGMDFNQPKIDYLTYDWSLNQ | 0.278 |
| HMAPFSGVEPREWDSLVERGRQSGEVHAEDVTHVLRHVELTGDVLTDVQSKMAEHGITIDDA | 0.206 |

| Sequence | soluble fraction (log2) |
| --- | --- |
| HMGTFIATVEANSLDIYKSMSSNETIGKANKGEVFQILEDMGSGYARVSYNDVEGYLSIRDGDATIEE | -0.356 |
| HMSSEPYISLPRGAAHDAYPLSTKAVAAQLGMSEVWLANLRSKGKGPRYVRVGTRVFYSPEDVAQWRRAT | -0.889 |
| HMLTRRQSEVLDFIRQFAESESMPPTLHEIAKGMGFSSDNAARDHVRALARKGAIDLVGGTSRGIRLR | -0.354 |
| HMITQQEFQQKLEALLSRAEAESFHIKKEEAESFFSGDELTGEQMKLVFDYLLSKKIIVEGYLK | -0.0863 |
| HMGKTEETLQMEKLVEALRRSGRMKYEDAYRIVYAAFPDAKDFEGMLSGAIRAGFIELQMGNDGAFLRAL | -0.172 |
| HMNLVRQHTDYAFRLLVALSQAPGKPISTRTLASAADVPYQFASKIMQKLHEEGLVESVMGPFGGFRLVQ | -2.52 |
| HMLRPEEMIYHEMLDAILDRRLEPGMKLVEEDLAKTFGVSRARIRATFLQLAHDKLINLVPNRGAFVAEP | -1.77 |
| HMIVVMAADSSREDLDLVQGRIEARGLRAQISQGVERIVIGVLGSLPPDLKDEMELLPGVREVLVIS | -0.405 |
| HMQMMDATLKIPPSMGKLRGTLYELNSVTSEDVDENGQLALHVRLSSVDWQRLKKRFDSNLDELIVQKN | -0.0668 |
| HMGHTKLVVDIVEELKLEQGALLPILHAIQDELGYVPTKSVPFIADSLNLSRAEVHGVISFYHYFR | 0.15 |
| HMETAADLLAAAKENPARFGILASEGRFGLGYMNDDLLDPDNLVAISREEADDLRGLGVYFHNLD | -0.0842 |
| HMRSWRDQRVDDLLAAVSELGMTMSRAAAGDLLDQRVEYVANQMRVTPATARKYLTEETLAGMAREIVFG | -0.693 |
| HMFPTLSPEEQRIVDQLAKENDLQANVIALRTALTIPQISALLFSLEMKGMVRLYAGGTYHLI | -2.81 |
| HMDSVAKSFLAEIERFLETAGLEPTTLGKQALGDPSFVFDLRKGRSPSTRTIGKLRVWMQQQNALS | -1.2 |
| HMGVIDTLSGPQKAAAILVAIGRPSASRLLKHFNAEDLRKLAGHARTLEPISPLDFEHLVKQFEDSFAEG | -0.798 |
| HMDRMIPPYGLEVTYDKTTHIIFPSAVRYVDLGSPNLIAGKADGSENVIRVKATRKNFREETNMSVITE | -0.043 |
| HMDDFPLKRGSKGNRVTLLQNALVKKYGAGILPKYGVDGMFGKEVEAALVHAKIPTTINEANYTKIV | 0.0897 |
| HMEDIAAIAQRIQGLRDIVGISVEEMAKALDISEQEYREYEKGETDFSFSFLYTVANVLGINITDLI | -0.709 |
| HMASEVEVPNVYGMPSSLAERELSAVGLLADYRSRTGTGQQPGTVVHVKPDAGTVVSRGSTVVLFIA | 0.00535 |
| HMDEPADVAIFDGFRQMSEDELKKLYESLNLAMTFKDFLHIQNYFKNEENREPSVTEIRVLDTYWSDH | 0.174 |
| HMLKDININVTGLDQISNAKLINNLNLLKMNNLFFLDEKKIKKILNSNNLIEKFFIFKKYPSTLDIKVYKT | -0.0369 |
| HMRLMLITPTEFDEAAEIADNLKDRRAVLMNVEKTDNETARRLIDFLSGVVYALGGKIMRISAQAYVLT | -0.236 |
| HMSYTDIILKMSNVNFLTKVNFTNSEKNKNIKNGNFLIKKGKNRITAAFDYKDNELVISKSNLRNTFL | -0.381 |
| HMLSYIELTVDNTSKASYIMTDKMKINNFKIIGNNTIRVYENKVSPQDISRTLSMNNVSIEALGRKS | -1.03 |
